Test system: PARP-1
Experiment: FACS PARP-1 activity in innate and adaptive immune cells treated with HSP60 or 15-HC
Format: cell-based, human
Settings: CD4+ T cells, CD8+ T cells, B cells of healthy controls; HSP60 1, 5, 10 ng/ml; 15-HC 1, 5, 10 ug/ml
From the text: FIGS. 17A-C are bar graphs showing that 15-HC, but not HSP60, activates PARP-1 in cells of the innate immune system. Mean PARP-1 activity as determined by FACS in classical monocytes (17A), inflammatory monocytes (17B) and dendritic cells (17C) of healthy controls (HC) treated with activated with HSP60, 15-HC or left untreated. The data are shown as mean fluorescence intensity (MFI)±SD of 5 samples/group.
FIGS. 18A-C are bar graphs showing that both 15-HC and HSP60 activate PARP-1 in cells of the adaptive immune system. Mean PARP-1 activity as determined by FACS in CD4+ T cells (18A), CD8+ T cells (18B) and B cells (18C) of healthy controls (HC) treated with activated with HSP60, 15-HC or left untreated. The data are shown as mean fluorescence intensity (MFI)±SD of 5 samples/group.
A new FACS-based method was developed to detect PARP-1 activation based on the intracellular detection of the PARP-1 product PAR with specific antibodies. Briefly, the cells were incubated with antibodies to CD16/32 to block unspecific antibody binding, and then stained for surface markers. […] The samples were then analyzed by FACS.
To investigate whether the increased activity of the TLR2/PARP-1 axis in SPMS patients resulted from increased levels of TLR2 ligands, the levels of 15-HC and HSP60 were measured in serum samples from healthy controls, RRMS and SPMS patients. […]

B1: HSP60: TLR2 agonist HSP60 (protein, UniProt P10809 27-573, looked up)
60 kDa heat shock protein, …: AKDVKFGADARALMLQGVDLLADAVAVTMGPKGRTVIIEQSWGSPKVTKDGVTVAKSIDLKDKYKNIGAKLVQDVANNTNEEAGDGTTTATVLARSIAKEGFEKISKGANPVEIRRGVMLAVDAVIAELKKQSKPVTTPEEIAQVATISANGDKEIGNIISDAMKKVGRKGVITVKDGKTLNDELEIIEGMKFDRGYISPYFINTSKGQKCEFQDAYVLLSEKKISSIQSIVPALEIANAHRKPLVIIAEDVDGEALSTLVLNRLKVGLQVVAVKAPGFGDNRKNQLKDMAIATGGAVFGEEGLTLNLEDVQPHDLGKVGEVIVTKDDAMLLKGKGDKAQIEKRIQEIIEQLDVTTSEYEKEKLNERLAKLSDGVAVLKVGGTSDVEVNEKKDRVTDALNATRAAVEEGIVLGGGCALLRCIPALDSLTPANEDQKIGIEIIKRTLKIPAMTIAKNAGVEGSLIVEKIMQSSSEVGYDAMAGDFVNMVEKGIIDPTKVVRTALLDAAGVASLLTTAEVVVTEIPKEEKDPGMGAMGGMGGGMGGGMF
  PARP-1 activation in cells of the adaptive immune system (FIG. 18): could activate
